Here are results for 36 substances from PMC4513852.

Like-named read-outs stand apart in the source and are kept apart here.

The target of experiment [1] is Hin F105C (Salmonella enterica) (UniProt P03013). Put plainly: native gel or EMSA.
The target in experiment [2] is Hin F105H (Salmonella enterica) (UniProt P03013). Kind of experiment: native gel or EMSA.
Experiment [3] concerns the target Hin F105I (Salmonella enterica) (UniProt P03013). Put plainly: native gel or EMSA.
In experiment [4] the target is Hin F105L (Salmonella enterica) (UniProt P03013). Kind of experiment: native gel or EMSA.
Experiment [5] concerns the target Hin F105M (Salmonella enterica) (UniProt P03013). Kind of experiment: native gel or EMSA.
For experiment [6], the target named is Hin F105Q (Salmonella enterica) (UniProt P03013). Put plainly: native gel or EMSA.
The target in experiment [7] is Hin F105V (Salmonella enterica) (UniProt P03013). Put plainly: native gel or EMSA.
Experiment [8] addresses Hin F105W (Salmonella enterica) (UniProt P03013). Kind of experiment: native gel or EMSA.
The target in experiment [9] is Hin F106A (Salmonella enterica) (UniProt P03013). Kind of experiment: native gel or EMSA.
In experiment [10] the target is Hin F106C (Salmonella enterica) (UniProt P03013). Put plainly: native gel or EMSA.
Experiment [11] concerns the target Hin F106D (Salmonella enterica) (UniProt P03013). Kind of experiment: native gel or EMSA.
In experiment [12] the target is Hin F106E (Salmonella enterica) (UniProt P03013). Put plainly: native gel or EMSA.
Experiment [13] addresses Hin F106G (Salmonella enterica) (UniProt P03013). Put plainly: native gel or EMSA.
For experiment [14], the target named is Hin F106H (Salmonella enterica) (UniProt P03013). Put plainly: native gel or EMSA.
Experiment [15] concerns the target Hin F106I (Salmonella enterica) (UniProt P03013). Kind of experiment: native gel or EMSA.
The target of experiment [16] is Hin F106K (Salmonella enterica) (UniProt P03013). Put plainly: native gel or EMSA.
For experiment [17], the target named is Hin F106L (Salmonella enterica) (UniProt P03013). Kind of experiment: native gel or EMSA.
For experiment [18], the target named is Hin F106M (Salmonella enterica) (UniProt P03013). Put plainly: native gel or EMSA.
The target of experiment [19] is Hin F106N (Salmonella enterica) (UniProt P03013). Kind of experiment: native gel or EMSA.
The target of experiment [20] is Hin F106P (Salmonella enterica) (UniProt P03013). Put plainly: native gel or EMSA.
For experiment [21], the target named is Hin F106Q (Salmonella enterica) (UniProt P03013). Kind of experiment: native gel or EMSA.
Experiment [22] has as its target Hin F106R (Salmonella enterica) (UniProt P03013). Put plainly: native gel or EMSA.
The target in experiment [23] is Hin F106S (Salmonella enterica) (UniProt P03013). Kind of experiment: native gel or EMSA.
Experiment [24] addresses Hin F106T (Salmonella enterica) (UniProt P03013). Kind of experiment: native gel or EMSA.
In experiment [25] the target is Hin F106V (Salmonella enterica) (UniProt P03013). Kind of experiment: native gel or EMSA.
For experiment [26], the target named is Hin F106W (Salmonella enterica) (UniProt P03013). Put plainly: native gel or EMSA.
For experiment [27], the target named is Hin F106Y (Salmonella enterica) (UniProt P03013).
For experiment [28] the target is unchanged. Put plainly: native gel or EMSA.
The target in experiment [29] is Hin M109F (Salmonella enterica) (UniProt P03013). Kind of experiment: native gel or EMSA.
For experiment [30], the target named is Hin M109H (Salmonella enterica) (UniProt P03013). Put plainly: native gel or EMSA.
Experiment [31] shares this target. Kind of experiment: native gel or EMSA. This is another data set of the same source.
Experiment [32] concerns the target Hin M109K (Salmonella enterica) (UniProt P03013). Kind of experiment: native gel or EMSA.
Experiment [33] has as its target Hin M109N (Salmonella enterica) (UniProt P03013). Put plainly: native gel or EMSA.
Experiment [34] has as its target Hin M109Q (Salmonella enterica) (UniProt P03013). Kind of experiment: native gel or EMSA.
For experiment [35], the target named is Hin M109R (Salmonella enterica) (UniProt P03013). Kind of experiment: native gel or EMSA.
Experiment [36] deals with Hin M109W (Salmonella enterica) (UniProt P03013). Kind of experiment: native gel or EMSA.
Experiment [37] has as its target Hin M109Y (Salmonella enterica) (UniProt P03013). Put plainly: native gel or EMSA.
In experiment [38] the target is Hin-Q134C (wt) (Salmonella enterica) (UniProt P03013). Kind of experiment: cross-linking.

The substance “Hin F105C (from UniProt P03013 1-190) (enzyme)” returned a stoichiometry N in experiment [1] of 4.
“Hin F105H (from UniProt P03013 1-190) (enzyme)” gave a stoichiometry N in experiment [2] of 4.
As to “Hin F105I (from UniProt P03013 1-190) (enzyme)”, the stoichiometry N in experiment [3] amounted to 4.
Substance “Hin F105L (from UniProt P03013 1-190) (enzyme)” came in with a stoichiometry N in experiment [4] of 4.
Regarding “Hin F105M (from UniProt P03013 1-190) (enzyme)”, in [5], the stoichiometry N was determined as 4.
As for “Hin F105Q (from UniProt P03013 1-190) (enzyme)”, the stoichiometry N in experiment [6] came out at 4.
As for “Hin F105V (from UniProt P03013 1-190) (enzyme)”, in experiment [7], the stoichiometry N was 4.
Turning to “Hin F105W (from UniProt P03013 1-190) (enzyme)”, in experiment [8], the stoichiometry N is 4.
“Hin F106A (from UniProt P03013 1-190) (enzyme)” had a stoichiometry N in experiment [9] of 2.
In experiment [10], “Hin F106C (from UniProt P03013 1-190) (enzyme)” showed a stoichiometry N of 2.
In turn, “Hin F106D (from UniProt P03013 1-190) (enzyme)” returned a stoichiometry N in [11] of 2.
Turning to “Hin F106E (from UniProt P03013 1-190) (enzyme)”, the stoichiometry N in experiment [12] was determined as 2.
As to “Hin F106G (from UniProt P03013 1-190) (enzyme)”, the stoichiometry N in [13] came out at 2.
For “Hin F106H (from UniProt P03013 1-190) (enzyme)”, the stoichiometry N in [14] is 2.
In experiment [15], “Hin F106I (from UniProt P03013 1-190) (enzyme)” came in with a stoichiometry N of 2.
“Hin F106K (from UniProt P03013 1-190) (enzyme)” registered a stoichiometry N in experiment [16] of 2.
As for “Hin F106L (from UniProt P03013 1-190) (enzyme)”, the stoichiometry N in experiment [17] was found to be 2.
Substance “Hin F106M (from UniProt P03013 1-190) (enzyme)” showed a stoichiometry N in experiment [18] of 2.
In [19], “Hin F106N (from UniProt P03013 1-190) (enzyme)” had a stoichiometry N of 2.
Turning to “Hin F106P (from UniProt P03013 1-190) (enzyme)”, the stoichiometry N in experiment [20] was found to be 2.
Substance “Hin F106Q (from UniProt P03013 1-190) (enzyme)” displayed a stoichiometry N in experiment [21] of 2.
In [22], “Hin F106R (from UniProt P03013 1-190) (enzyme)” yielded a stoichiometry N of 2.
As to “Hin F106S (from UniProt P03013 1-190) (enzyme)”, in experiment [23], the stoichiometry N turned out to be 2.
Substance “Hin F106T (from UniProt P03013 1-190) (enzyme)” showed a stoichiometry N in [24] of 2.
The substance “Hin F106V (from UniProt P03013 1-190) (enzyme)” returned a stoichiometry N in experiment [25] of 2.
As for “Hin F106W (from UniProt P03013 1-190) (enzyme)”, in experiment [26], the stoichiometry N stood at 2.
In experiment [27], “Hin F106Y (from UniProt P03013 1-190) (enzyme)” had a Fis-activated in vitro DNA inversion rate, relative to wild type (% of the wild-type rate) of 10. For the same substance, in experiment [28], the stoichiometry N was 2.
The substance “Hin M109F (from UniProt P03013 1-190) (enzyme)” had a stoichiometry N in experiment [29] of 2.
On to “Hin M109H (from UniProt P03013 1-190) (enzyme)”, for which the stoichiometry N in [30] came out at 4; in [31], 2.
Substance “Hin M109K (from UniProt P03013 1-190) (enzyme)” displayed a stoichiometry N in [32] of 4.
Take “Hin M109N (from UniProt P03013 1-190) (enzyme)”: in experiment [33], the stoichiometry N is 2.
In experiment [34], “Hin M109Q (from UniProt P03013 1-190) (enzyme)” gave a stoichiometry N of 4.
Regarding “Hin M109R (from UniProt P03013 1-190) (enzyme)”, in [35], the stoichiometry N amounted to 4.
In [36], “Hin M109W (from UniProt P03013 1-190) (enzyme)” came in with a stoichiometry N of 4.
Substance “Hin M109Y (from UniProt P03013 1-190) (enzyme)” had a stoichiometry N in [37] of 4.
“Hin-Q134C (wt) (from UniProt P03013 1-190) (enzyme)” showed a percent crosslinked products in experiment [38] of 65%.
